According to patent US5039791A, “Peptide fragments of tissue plasminogen activator” (Monsanto Company, priority 1989, dated 1991):
“Also recorded” adds a separate entry of the source. Where no end group is shown, it is not given here.

Experiments:
[1] = test system: human umbilical vein endothelial cells; assay: Endothelial cell binding assay: binding of [125I]-tPA to endothelial cells; conditions: for inhibition of binding of tPA to endothelial cells (FIG. 3): 15 μg/ml peptide, about 20 ng/ml [125I]-tPA, 4° C., 90 minutes; for dose response of inhibition of binding of tPA to endothelial cells (FIG. 4): several peptide concentrations
Description: Peptides from FIG. 1 were examined for their ability to inhibit the binding of [^125 I]-tPA to human umbilical vein endothelial cells. Assays were performed as described under Materials and Methods, below, using a final peptide concentration of 15 μg/ml. All samples were assayed in duplicate. Bar height represents the result obtained for one duplicate point and the corresponding error bar represents the result obtained for the other. Results are shown in percent inhibition of binding.
Assays examining the binding of [^125 I]-tPA to endothelial cells were performed by a conventional method essentially as described by Hajjar et al., J. Clin. Invest. 80, 1712-1719 (1987), and Beebe, Thromb. Res. 46, 241-254 (1987). Briefly, cells were grown to confluence in 24-well dishes using MCDB107 growth medium supplemented with 180 μg/ml heparin, 30 μg/ml ECGS, 100 μg/ml gentamicin and 10% fetal bovine serum. Immediately prior to assay, plates were chilled to 4° C. and all wells were aspirated. Cells were washed 3 times with binding buffer (PBS, pH 7.2, 5.0 mg/ml BSA, 10 mM glucose, 0.01% Tween 80). Five hundred μl of buffer containing approximately 20 ng/ml of [^125 I]-tPA and a test sample of peptide was then added. Incubations proceeded at 4° C. for 90 minutes. At the end of the incubation time, cells were washed rapidly 4 times with 500 μl aliquots of binding buffer. Cells were separated from the plates using 3% sodium dodecylsulfate (SDS) and the amount of radioactivity present was determined. Nonspecific binding was determined by carrying out incubations in the presence of an excess (2.0 μg/ml) of unlabeled tPA.
The peptides shown in Table 1 were examined for their effect on the binding of tPA to cultured human umbilical vein endothelial cells. […] All points were run in duplicate and nonspecific binding was subtracted in each case.

[2] = molecular target: T1, PAI-1 (Homo sapiens, UniProt P05121); assay: PAI-1 inhibition studies: protection of tPA from inactivation by PAI-1, residual tPA enzymatic activity by indirect amidolytic assay; type: biochemical; conditions: 1.5 μg/ml PAI-1, 50 ng/ml tPA; for maintenance of tPA activity in the presence of PAI-1 (FIG. 1): 100 μg/ml peptide, one hour at 37° C.; for effect of peptide concentration on the maintenance of tPA activity in the presence of PAI-1 (FIG. 2): several peptide concentrations (30-120 μg/ml)
T1 construct: purchased American Diagnostica, Inc
Description: In each case, peptide and PAI-1 were first mixed, followed by the addition of tPA. Final concentrations were: 100 μg/ml peptide, 1.5 μg/ml PAI-1 and 50 ng/ml tPA in phospate buffered saline containing 0.01% sodium azide and 0.01% Tween 80%. After incubation for one hour at 37° C., samples were examined for remaining tPA enzymatic activity. The error bars represent the range of duplicate measurements of the tPA enzymatic activity in μAU/min/min.
Results are expressed as the percentage of tPA enzymatic activity remaining after incubation with tPA, PAI-1 and peptide relative to that seen with tPA alone.
An indirect amidolytic assay for tPA activity was performed by a conventional method as described by Ranby and Wallen, Prog. Fibrinolytics 5, 233-235 (1981) and Ranby, Biochim. Biophys. Acta 740, 461-469 (1982) but with the following modifications. The assay mixture contained 50 μg/ml human glu-plasminogen, 1 mM plasmin substrate S-2251, 130 μg/ml fibrinogen fragment stimulator, and 0 to 20 ng/ml tPA sample in phosphate-buffered saline containing 0.01% sodium azide and 0.01% Tween 80 (PBSAT) in a final volume of 100 μl. The assay was performed in a 96-well microtitration plate at room temperature. Reaction mixtures were overlaid with 50 μl mineral oil to prevent evaporation. Periodic readings were taken at 405 nm and referenced at 650 nm using a Molecular Devices Vmax plate reader. The first derivative of absorbance with respect to time was calculated and the slope of a plot of dA/dt vs time was proportional to tPA activity. Results were expressed in absorbance units (μ AU/min^2) or as a percentage of control.
The effect of peptides on the inactivation of tPA by PAI-1 was measured by incubating 1.5 μg/ml PAI-1, 30-120 μg/ml peptide and 50 ng/ml tPA in PBSAT. PAI-1 and peptide were first mixed, followed by the addition of tPA. After one hour at 37° C., residual tPA enzymatic activity was measured either immediately or after the samples had been frozen and stored.
tPA was incubated with increasing concentrations of PAI-1 for one hour at 37° C. and the incubate was then assayed for residual tPA enzymatic activity.

T1 sequence (P05121 24-402): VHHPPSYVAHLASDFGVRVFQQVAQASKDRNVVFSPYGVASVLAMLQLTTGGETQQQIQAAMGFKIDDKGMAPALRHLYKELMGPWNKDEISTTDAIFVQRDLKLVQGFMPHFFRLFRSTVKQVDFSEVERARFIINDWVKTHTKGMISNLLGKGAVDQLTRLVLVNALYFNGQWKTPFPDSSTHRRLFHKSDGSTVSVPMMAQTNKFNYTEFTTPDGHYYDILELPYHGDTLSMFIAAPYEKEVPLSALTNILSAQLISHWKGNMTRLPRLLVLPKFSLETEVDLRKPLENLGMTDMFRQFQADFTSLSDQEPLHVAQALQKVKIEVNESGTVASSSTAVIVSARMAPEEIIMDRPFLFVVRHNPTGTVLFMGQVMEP

## LGKHNYCRNPDGDAKPWCHVLKNRR-amide (LGKHNYCRNPDGDAKPWCHVLKNRR-NH2; cysteine pairing not given here) [Peptide 166, 25 amino acid synthetic peptide amide fragment of native human tPA]
[1]
  inhibition of binding of tPA to endothelial cells (FIG. 3): effective at inhibiting the binding of tPA to cells
[2]
  maintenance of tPA activity in the presence of PAI-1 (FIG. 1): no effect
  effect of peptide concentration on the maintenance of tPA activity in the presence of PAI-1 (FIG. 2): no effect

## NPDRDSKPWCYVFKAGKYSSEFCST-amide (NPDRDSKPWCYVFKAGKYSSEFCST-NH2; cysteine pairing not given here) [Peptide 158, 25 amino acid synthetic peptide amide fragment of native human tPA]
[1]
  inhibition of binding of tPA to endothelial cells (FIG. 3): inhibited the binding of tPA to endothelial cells; also recorded: more effective at inhibiting endothelial cell binding relative to the other active peptides
  dose response of inhibition of binding of tPA to endothelial cells (FIG. 4): concentration dependent manner
[2]
  maintenance of tPA activity in the presence of PAI-1 (FIG. 1): active but with a lesser effect
  effect of peptide concentration on the maintenance of tPA activity in the presence of PAI-1 (FIG. 2): steady, progressive increase in activity

## VPVKSCSEPRCFNGGTCQQALYFSD-amide (VPVKSCSEPRCFNGGTCQQALYFSD-NH2; cysteine pairing not given here) [Peptide 148, 25 amino acid synthetic peptide amide fragment of native human tPA]
[1]
  inhibition of binding of tPA to endothelial cells (FIG. 3): inhibited the binding of tPA to endothelial cells
  dose response of inhibition of binding of tPA to endothelial cells (FIG. 4): concentration dependent manner
[2]
  maintenance of tPA activity in the presence of PAI-1 (FIG. 1): especially effective at maintaining tPA activity
  effect of peptide concentration on the maintenance of tPA activity in the presence of PAI-1 (FIG. 2): rose dramatically and plateaued
